Test results from patent US20260125472A1 (HEFEI TG IMMUNOPHARMA, published 2026).
Where a chain is given by its changes, count along the chain named.

B1: Cross3×Trop2 (bispecific antibody)
scFv: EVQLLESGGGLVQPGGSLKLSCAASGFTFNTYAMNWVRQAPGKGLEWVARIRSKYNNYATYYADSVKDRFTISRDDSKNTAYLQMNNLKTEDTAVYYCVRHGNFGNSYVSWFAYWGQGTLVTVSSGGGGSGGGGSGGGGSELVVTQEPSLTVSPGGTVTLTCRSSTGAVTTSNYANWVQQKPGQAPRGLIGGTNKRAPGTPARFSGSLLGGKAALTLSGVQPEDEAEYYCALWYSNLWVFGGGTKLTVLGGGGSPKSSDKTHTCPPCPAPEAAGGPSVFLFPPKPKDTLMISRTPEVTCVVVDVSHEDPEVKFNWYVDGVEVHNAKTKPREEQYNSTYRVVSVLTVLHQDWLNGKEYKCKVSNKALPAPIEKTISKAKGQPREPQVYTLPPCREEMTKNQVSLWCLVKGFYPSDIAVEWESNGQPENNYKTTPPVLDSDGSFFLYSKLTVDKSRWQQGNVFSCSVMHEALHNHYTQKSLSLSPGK
heavy: QVQLQQSGSELKKPGASVKVSCKASGYTFTNYGMNWVKQAPGQGLKWMGWINTYTGEPTYTDDFKGRFAFSLDTSVSTAYLQISSLKADDTAVYFCARGGFGSSYWYFDVWGQGSLVTVSSASTKGPSVFPLAPSSKSTSGGTAALGCLVKDYFPEPVTVSWNSGALTSGVHTFPAVLQSSGLYSLSSVVTVPSSSLGTQTYICNVNHKPSNTKVDKKVEPKSSDKTHTCPPCPAPEAAGGPSVFLFPPKPKDTLMISRTPEVTCVVVDVSHEDPEVKFNWYVDGVEVHNAKTKPREEQYNSTYRVVSVLTVLHQDWLNGKEYKCKVSNKALPAPIEKTISKAKGQPREPQVCTLPPSREEMTKNQVSLSCAVKGFYPSDIAVEWESNGQPENNYKTTPPVLDSDGSFFLVSKLTVDKSRWQQGNVFSCSVMHEALHNHYTQKSLSLSPGK
light: DIQLTQSPSSLSASVGDRVSITCKASQDVSIAVAWYQQKPGKAPKLLIYSASYRYTGVPDRFSGSGSGTDFTLTISSLQPEDFAVYYCQQHYITPLTFGAGTKVEIKRTVAAPSVFIFPPSDEQLKSGTASVVCLLNNFYPREAKVQWKVDNALQSGNSQESVTEQDSKDSTYSLSSTLTLSKADYEKHKVYACEVTHQGLSSPVTKSFNRGEC
notes: also called parental Cross3×Trop2 bispecific antibody
B2: Cross303×Trop2 (bispecific antibody)
scFv: not shown
heavy: B1 heavy
light: B1 light
B3: Cross307×Trop2 (bispecific antibody)
scFv: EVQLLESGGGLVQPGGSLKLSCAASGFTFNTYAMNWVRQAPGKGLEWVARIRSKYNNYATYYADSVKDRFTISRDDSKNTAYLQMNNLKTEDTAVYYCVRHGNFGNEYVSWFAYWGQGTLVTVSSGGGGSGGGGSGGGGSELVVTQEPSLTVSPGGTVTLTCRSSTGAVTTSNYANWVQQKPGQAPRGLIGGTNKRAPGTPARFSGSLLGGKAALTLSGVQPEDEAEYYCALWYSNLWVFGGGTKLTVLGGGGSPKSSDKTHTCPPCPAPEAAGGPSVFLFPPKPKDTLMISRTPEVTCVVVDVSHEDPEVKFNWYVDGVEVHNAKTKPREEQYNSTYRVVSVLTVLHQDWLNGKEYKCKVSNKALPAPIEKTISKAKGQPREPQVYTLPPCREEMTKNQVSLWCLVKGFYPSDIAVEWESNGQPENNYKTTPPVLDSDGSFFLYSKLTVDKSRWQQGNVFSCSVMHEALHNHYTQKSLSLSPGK
heavy: B1 heavy
light: B1 light
B4: Cross308×Trop2 (bispecific antibody)
scFv: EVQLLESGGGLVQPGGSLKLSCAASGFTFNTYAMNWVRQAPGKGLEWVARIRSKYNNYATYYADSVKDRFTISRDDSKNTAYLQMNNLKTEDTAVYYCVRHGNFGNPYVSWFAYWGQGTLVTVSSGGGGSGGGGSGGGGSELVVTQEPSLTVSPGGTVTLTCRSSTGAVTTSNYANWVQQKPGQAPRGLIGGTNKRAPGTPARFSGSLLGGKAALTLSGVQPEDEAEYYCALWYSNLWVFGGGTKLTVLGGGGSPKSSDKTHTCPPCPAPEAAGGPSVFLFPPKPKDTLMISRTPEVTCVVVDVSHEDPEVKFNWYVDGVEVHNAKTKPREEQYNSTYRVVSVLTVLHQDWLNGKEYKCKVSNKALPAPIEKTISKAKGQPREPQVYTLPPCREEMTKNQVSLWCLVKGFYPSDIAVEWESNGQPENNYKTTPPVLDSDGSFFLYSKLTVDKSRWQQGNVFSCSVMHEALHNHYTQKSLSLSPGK
heavy: B1 heavy
light: B1 light
B5: Cross309×Trop2 (bispecific antibody)
scFv: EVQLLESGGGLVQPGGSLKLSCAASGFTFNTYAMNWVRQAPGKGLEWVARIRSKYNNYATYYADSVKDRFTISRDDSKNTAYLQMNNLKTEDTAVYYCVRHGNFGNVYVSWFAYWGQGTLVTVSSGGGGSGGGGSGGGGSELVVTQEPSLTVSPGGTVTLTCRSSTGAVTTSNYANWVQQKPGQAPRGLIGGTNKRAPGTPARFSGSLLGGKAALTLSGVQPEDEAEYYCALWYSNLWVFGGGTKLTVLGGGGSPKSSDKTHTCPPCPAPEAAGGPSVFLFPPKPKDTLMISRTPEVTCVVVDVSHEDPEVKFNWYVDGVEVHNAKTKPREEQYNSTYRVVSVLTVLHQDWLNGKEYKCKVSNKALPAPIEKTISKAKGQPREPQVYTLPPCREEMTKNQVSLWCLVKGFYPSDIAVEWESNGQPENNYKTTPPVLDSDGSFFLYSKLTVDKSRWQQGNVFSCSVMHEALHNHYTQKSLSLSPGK
heavy: B1 heavy
light: B1 light
B6: Cross310×Trop2 (bispecific antibody)
scFv: not shown
heavy: B1 heavy
light: B1 light
B7: Cross312×Trop2 (bispecific antibody)
scFv: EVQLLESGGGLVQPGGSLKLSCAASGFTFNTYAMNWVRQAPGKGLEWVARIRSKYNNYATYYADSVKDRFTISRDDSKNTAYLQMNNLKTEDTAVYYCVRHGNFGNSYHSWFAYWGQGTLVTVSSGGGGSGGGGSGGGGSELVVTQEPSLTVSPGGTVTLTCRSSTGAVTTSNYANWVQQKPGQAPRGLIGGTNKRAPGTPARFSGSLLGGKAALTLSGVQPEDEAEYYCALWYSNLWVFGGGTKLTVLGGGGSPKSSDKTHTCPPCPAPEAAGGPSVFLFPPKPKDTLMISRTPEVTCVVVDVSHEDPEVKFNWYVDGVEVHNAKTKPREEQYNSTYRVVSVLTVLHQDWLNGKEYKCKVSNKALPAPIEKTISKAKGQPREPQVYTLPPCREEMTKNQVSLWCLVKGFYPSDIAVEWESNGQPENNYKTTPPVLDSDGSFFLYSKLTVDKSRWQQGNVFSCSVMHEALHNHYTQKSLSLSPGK
heavy: B1 heavy
light: B1 light
B8: Cross313×Trop2 (bispecific antibody)
scFv: not shown
heavy: B1 heavy
light: B1 light
B9: Cross314×Trop2 (bispecific antibody)
scFv: not shown
heavy: B1 heavy
light: B1 light
B10: Cross316×Trop2 (bispecific antibody)
scFv: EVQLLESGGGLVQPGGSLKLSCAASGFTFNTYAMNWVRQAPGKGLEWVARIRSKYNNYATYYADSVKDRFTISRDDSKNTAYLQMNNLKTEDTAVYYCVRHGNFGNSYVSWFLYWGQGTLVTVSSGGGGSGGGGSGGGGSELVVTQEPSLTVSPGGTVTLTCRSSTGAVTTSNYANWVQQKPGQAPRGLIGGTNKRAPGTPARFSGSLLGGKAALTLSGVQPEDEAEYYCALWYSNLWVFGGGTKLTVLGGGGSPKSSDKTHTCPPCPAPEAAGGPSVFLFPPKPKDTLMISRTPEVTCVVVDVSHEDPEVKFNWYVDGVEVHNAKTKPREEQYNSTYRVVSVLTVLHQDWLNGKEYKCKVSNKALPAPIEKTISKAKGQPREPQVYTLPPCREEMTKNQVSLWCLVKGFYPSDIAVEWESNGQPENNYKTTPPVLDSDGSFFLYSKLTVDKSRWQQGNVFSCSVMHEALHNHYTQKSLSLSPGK
heavy: B1 heavy
light: B1 light
B11: Cross318×Trop2 (bispecific antibody)
scFv: not shown
heavy: B1 heavy
light: B1 light
B12: Cross323×Trop2 (bispecific antibody)
scFv: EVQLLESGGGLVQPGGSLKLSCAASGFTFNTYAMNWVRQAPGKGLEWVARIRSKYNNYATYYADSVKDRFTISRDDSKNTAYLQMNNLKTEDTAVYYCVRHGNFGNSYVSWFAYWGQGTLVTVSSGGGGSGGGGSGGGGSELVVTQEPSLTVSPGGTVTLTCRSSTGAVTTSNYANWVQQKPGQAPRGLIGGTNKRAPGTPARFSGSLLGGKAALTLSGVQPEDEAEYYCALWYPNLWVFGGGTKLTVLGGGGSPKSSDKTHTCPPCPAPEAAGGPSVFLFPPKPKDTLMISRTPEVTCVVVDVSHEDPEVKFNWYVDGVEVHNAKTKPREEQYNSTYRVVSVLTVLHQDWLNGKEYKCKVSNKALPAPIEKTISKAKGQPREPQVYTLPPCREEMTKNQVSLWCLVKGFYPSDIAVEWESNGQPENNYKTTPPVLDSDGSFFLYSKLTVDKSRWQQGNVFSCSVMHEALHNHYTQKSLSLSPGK
heavy: B1 heavy
light: B1 light
B13: Cross325×Trop2 (bispecific antibody)
scFv: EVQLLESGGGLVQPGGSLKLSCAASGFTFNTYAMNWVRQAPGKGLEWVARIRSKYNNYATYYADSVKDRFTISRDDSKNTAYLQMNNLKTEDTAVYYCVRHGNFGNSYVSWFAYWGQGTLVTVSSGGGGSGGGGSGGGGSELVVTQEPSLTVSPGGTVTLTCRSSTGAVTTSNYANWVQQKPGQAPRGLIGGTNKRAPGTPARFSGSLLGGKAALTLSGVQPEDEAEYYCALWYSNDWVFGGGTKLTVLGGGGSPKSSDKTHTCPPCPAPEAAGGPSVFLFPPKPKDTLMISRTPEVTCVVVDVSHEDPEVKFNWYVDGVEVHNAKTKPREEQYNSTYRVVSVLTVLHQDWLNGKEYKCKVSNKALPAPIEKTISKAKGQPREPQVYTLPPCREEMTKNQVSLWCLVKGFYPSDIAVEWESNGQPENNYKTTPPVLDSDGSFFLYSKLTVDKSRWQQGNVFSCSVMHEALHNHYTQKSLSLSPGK
heavy: B1 heavy
light: B1 light
B14: Cross326×Trop2 (bispecific antibody)
scFv: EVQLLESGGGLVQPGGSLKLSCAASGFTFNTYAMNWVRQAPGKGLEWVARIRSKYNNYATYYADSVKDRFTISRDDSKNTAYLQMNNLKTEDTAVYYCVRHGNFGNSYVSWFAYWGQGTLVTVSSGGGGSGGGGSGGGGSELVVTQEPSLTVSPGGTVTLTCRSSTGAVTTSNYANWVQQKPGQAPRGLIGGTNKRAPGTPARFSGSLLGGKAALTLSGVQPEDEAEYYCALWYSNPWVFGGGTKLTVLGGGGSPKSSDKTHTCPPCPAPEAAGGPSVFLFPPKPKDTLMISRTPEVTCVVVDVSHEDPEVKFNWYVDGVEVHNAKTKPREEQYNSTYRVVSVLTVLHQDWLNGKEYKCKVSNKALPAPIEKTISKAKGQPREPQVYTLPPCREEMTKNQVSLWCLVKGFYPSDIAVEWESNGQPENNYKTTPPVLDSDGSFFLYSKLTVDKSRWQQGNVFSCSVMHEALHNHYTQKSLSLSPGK
heavy: B1 heavy
light: B1 light
B15: Cross3ZH07 (antibody, human IgG1, kappa, V domains shown)
VH: EVQLLESGGGLVQPGGSLKLSCAASGFTFNTYAMNWVRQAPGKGLEWVARIRSKYNNYATYYADSVKDRFTISRDDSKNTAYLQMNNLKTEDTAVYYCVRHGMFGNSYVSWFAYWGQGTLVTVSS
VL: ELVVTQEPSLTVSPGGTVTLTCRSSTGAVTTSNYANWVQQKPGQAPRGLIGGTNKRAPGTPARFSGSLLGGKAALTLSGVQPEDEAEYYCALWYPNPWVFGGGTKLTVLR
B16: Cross3ZH09 (antibody, human IgG1, kappa, V domains shown)
VH: B15 VH with M103N, A113L
VL: B15 VL
B17: Cross3ZH16 (antibody, human IgG1, kappa, V domains shown)
VH: B15 VH with M103N
VL: B15 VL with P97D
B18: Cross3ZH23 (antibody, human IgG1, kappa, V domains shown)
VH: B15 VH with M103N, S107D
VL: B15 VL with P95S

Each binder was assayed against T1, Trop2 protein (UniProt P09758 27-274) (assay: ELISA, coated Trop2 protein, OD450).
T1 construct: Bought recombinant protein; also called Trop2-Biotin protein (biotin-labelled, bridging ELISA)
T1 sequence (looked up): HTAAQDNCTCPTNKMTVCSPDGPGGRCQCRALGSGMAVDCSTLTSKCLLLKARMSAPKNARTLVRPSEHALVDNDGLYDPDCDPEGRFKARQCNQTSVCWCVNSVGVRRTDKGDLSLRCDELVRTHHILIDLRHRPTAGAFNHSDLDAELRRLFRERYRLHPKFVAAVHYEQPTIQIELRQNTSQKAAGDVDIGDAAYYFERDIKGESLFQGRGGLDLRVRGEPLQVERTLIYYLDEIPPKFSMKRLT
Source text: In this example, the binding properties of the CD3×Trop2 and CD3×PDL1 bispecific antibody (the production method and the amino acid sequences of the heavy and light chains were shown in Example 1) were detected by using ELISA. The CD3E&D, Trop2, or PDL1 protein was coated onto 96-well plates by inventors, and the strength of the signal after the addition of the antibody was used to determine the binding properties of the antibody and the corresponding protein.
(2) Trop2 protein (purchased from Acro) was diluted to 2 μg/ml with PBS buffer, added to a 96-well plate at a volume of 100 μL/well, and placed at 4° C. overnight. The PBS buffer in the 96-well plate was aspirated, and the plate was washed 6 times with PBST (pH 7.2 PBS containing 0.1% Tween 20) buffer. Then, 200 μL/well PBS/10% BSA was added and incubated at 37° C. for 2 h for blocking. The blocking solution was removed, and the plate was washed six times with PBST. Then, the to-be-tested bispecific antibodies, Cross3×Trop2, Cross303×Trop2, Cross307×Trop2, Cross308×Trop2, Cross309×Trop2, Cross310×Trop2, Cross311×Trop2, Cross312×Trop2, Cross313×Trop2, Cross314×Trop2, Cross316×Trop2, Cross317×Trop2, Cross318×Trop2, Cross323×Trop2, Cross325×Trop2, Cross326×Trop2, and control IgG1LALA (purchased from Bio-Tech), serially diluted with PBST/0.05% BSA, were added at 100 μL/well and incubated at 37° C. for 1 h. The reaction system was removed, and the plate was washed 6 times with PBST. Then, HRP (horseradish peroxidase)-labeled anti-human secondary antibody (Fab specific) (purchased from Sigma) diluted with PBST/0.05% BSA at 100 μL/well. After the plate was washed six times with PBST, TMB (tetramethylbenzidine) was added at 80 μL/well, and incubated at room temperature for 3 min. 4 M sulfuric acid was added at 80 μL/well to terminate the reaction. The absorbance was read at 450 nm using a microplate reader.

Question: How did the “EC50 (read off the curve)” value turn out when B1 was run?
Answer: ~0.008 µg/mL

Question: B2 was tested. Which “EC50 (read off the curve)” value did it give?
Answer: ~0.008 µg/mL

Question: Which “EC50 (read off the curve)” value does the source give for B3 here?
Answer: ~0.008 µg/mL

Question: With B4 as the binder, how does the “EC50 (read off the curve)” value read?
Answer: ~0.008 µg/mL

Question: B5 was tested. Which “EC50 (read off the curve)” value did it give?
Answer: ~0.008 µg/mL

Question: B6 was tested. Which “EC50 (read off the curve)” value did it give?
Answer: ~0.008 µg/mL

Question: B7 was tested. Which “EC50 (read off the curve)” value did it give?
Answer: ~0.008 µg/mL

Question: Which “EC50 (read off the curve)” value does the source give for B8 here?
Answer: ~0.008 µg/mL

Question: B9 was tested. Which “EC50 (read off the curve)” value did it give?
Answer: ~0.008 µg/mL

Question: Which “EC50 (read off the curve)” value does the source give for B10 here?
Answer: ~0.008 µg/mL

Question: Which “EC50 (read off the curve)” value does the source give for B11 here?
Answer: ~0.02 µg/mL

Question: Which “EC50 (read off the curve)” value does the source give for B12 here?
Answer: ~0.008 µg/mL

Question: Which “EC50 (read off the curve)” value does the source give for B13 here?
Answer: ~0.008 µg/mL

Question: For B14, which “EC50 (read off the curve)” value is on record?
Answer: ~0.008 µg/mL

What follows are binders tested against T2, CD3E&D protein (UniProt P04234 22-105) (assay: SPR (Biacore 8K), antibody on CM5 chip, CD3 E&D antigen as analyte).
T2 construct: Purchased from Acro; also called CD3 E&D antigens; CD3E&D antigen protein
Parameters: Fold change: reference not given here
Procedure: In a Biacore 8K (Cytiva) system, the antibody was diluted to 10 μg/mL in HBS-EP running buffer and coupled to a CM5 chip (Cytiva) at a flow rate of 10 μL/min.

T2 sequence (chain, as listed by the source limits assumed, chain 1 of 2): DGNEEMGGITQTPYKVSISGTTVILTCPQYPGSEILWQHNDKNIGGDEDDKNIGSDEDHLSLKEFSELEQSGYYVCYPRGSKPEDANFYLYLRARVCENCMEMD
T2 sequence (P04234 22-105 limits assumed, chain 2 of 2): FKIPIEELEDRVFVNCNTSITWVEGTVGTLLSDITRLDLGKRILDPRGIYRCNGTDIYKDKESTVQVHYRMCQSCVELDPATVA

Question: What does the source list for B15?
Answer: Fold change: 69.1; Kd: 11.4 nM; koff: 0.00138 s⁻¹; kon: 121000 M⁻¹ s⁻¹

Question: What does the source list for B16?
Answer: Fold change: 636; Kd: 105 nM; koff: 0.00296 s⁻¹; kon: 28100 M⁻¹ s⁻¹

Question: Which results are given for B17?
Answer: Fold change: 105; Kd: 17.3 nM; koff: 0.0243 s⁻¹; kon: 1.41e+06 M⁻¹ s⁻¹

Question: Which Fold change does the source give for B18 here?
Answer: 4090

Question: What about the Kd of the same binder?
Answer: 675 nM

Question: What about the koff of the same binder?
Answer: 0.055 s⁻¹

Question: What about the kon of the same binder?
Answer: 81500 M⁻¹ s⁻¹

Each binder was assayed against T3, Trop2 on A-375-Trop2 melanoma cells (UniProt P09758 27-323, limits assumed) (assay: flow cytometry, A-375-Trop2 cells, MFI [panel B]).
T3 construct: whole, on cells
T3 sequence (looked up): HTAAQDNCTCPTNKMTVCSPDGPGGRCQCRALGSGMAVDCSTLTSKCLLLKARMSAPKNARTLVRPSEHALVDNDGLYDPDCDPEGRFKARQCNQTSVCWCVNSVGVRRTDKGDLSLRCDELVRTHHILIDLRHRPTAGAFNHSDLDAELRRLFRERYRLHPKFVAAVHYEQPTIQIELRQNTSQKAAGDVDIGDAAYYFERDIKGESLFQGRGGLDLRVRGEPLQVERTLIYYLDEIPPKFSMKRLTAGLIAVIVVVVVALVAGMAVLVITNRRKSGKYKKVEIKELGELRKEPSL
Procedure: (2) The tumor cells were diluted to 2×10⁶/ml with PBS and added to a 1.5 ml EP tube at a volume of 100 μl/tube, and goat serum was added thereto at 10 μl/tube. The cells were blocked at 4° C. for 30 min. The serially diluted bispecific antibodies, Cross3×Trop2, Cross303×Trop2, Cross307×Trop2, Cross308×Trop2, Cross309×Trop2, Cross310×Trop2, Cross311×Trop2, Cross312×Trop2, Cross313×Trop2, Cross314×Trop2, Cross316×Trop2, Cross317×Trop2, Cross318×Trop2, Cross323×Trop2, Cross325×Trop2, Cross326×Trop2, and Cross3×PDL1, Cross303×PDL1, Cross307×PDL1, Cross308×PDL1, Cross309×PDL1, Cross310×PDL1, Cross311×PDL1, Cross312×PDL1, Cross313×PDL1, Cross314×PDL1, Cross316×PDL1, Cross317×PDL1, Cross318×PDL1, Cross323×PDL1, Cross325×PDL1, Cross326×PDL1, and control hIgG1LALA (purchased from Bio-Tech) were added and incubated at 4° C. for 30 min. 1 ml of PBS was added to the EP tube, followed by centrifugation at 3500 rpm for 5 min at 4° C. The supernatant was discarded, and the cells were washed again with PBS. After centrifugation, the supernatant was completely discarded, and the cells were resuspended with PBS at 100 μl/tube. Alexa-647-labeled goat anti-human IgG secondary antibody (purchased from Jackson lab) was added at 1 μl/tube and incubated at 4° C. in the dark for 30 min. The cells were washed twice with PBS, and the supernatant was completely discarded after centrifugation. The cells were resuspended with PBS at 200 μl/tube and assay was performed using the flow cytometry.

Question: For B1, which “EC50 (read off the curve)” value is on record?
Answer: ~1 µg/mL

Question: For B2, which “EC50 (read off the curve)” value is on record?
Answer: ~1 µg/mL

Question: How did the “EC50 (read off the curve)” value turn out when B3 was run?
Answer: ~1 µg/mL

Question: How did the “EC50 (read off the curve)” value turn out when B4 was run?
Answer: ~1 µg/mL

Question: Which “EC50 (read off the curve)” value does the source give for B5 here?
Answer: ~1 µg/mL

Question: How did the “EC50 (read off the curve)” value turn out when B6 was run?
Answer: ~1 µg/mL

Question: With B7 as the binder, how does the “EC50 (read off the curve)” value read?
Answer: ~1 µg/mL

Question: How did the “EC50 (read off the curve)” value turn out when B8 was run?
Answer: ~1 µg/mL

Question: Which “EC50 (read off the curve)” value does the source give for B9 here?
Answer: ~1 µg/mL

Question: Which “EC50 (read off the curve)” value does the source give for B10 here?
Answer: ~1 µg/mL

Question: With B11 as the binder, how does the “EC50 (read off the curve)” value read?
Answer: ~1 µg/mL

Question: Which “EC50 (read off the curve)” value does the source give for B12 here?
Answer: ~1 µg/mL

Question: For B13, which “EC50 (read off the curve)” value is on record?
Answer: ~1 µg/mL

Question: B14 was tested. Which “EC50 (read off the curve)” value did it give?
Answer: ~1 µg/mL
